Experimental data taken from US20200347144A1 (SHANGHAI HYAMAB BIOTECH, published 2020).

Tests used:
[1] = molecular target: T1, human 4-1BB, full length, on transfected cells (human, UniProt Q07011 24-255); experiment: FACS, CHOK1-h4-1BB cells; Ab 10 ug/ml
T1 construct: whole, on cells; also called CHOK1-h4-1BB
Method in brief: (§1)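 CHOK1 stable lines expressing human or monkey 4-1BB were detached with enzyme-free Versene, blocked in 1% goat serum on ice for 30 min and resuspended at 2×10⁶ cells/mL in HBSS with 1% BSA. Purified antibody was bound on ice for 2 h, then cells were fixed in 4% paraformaldehyde and analysed by flow cytometry.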

[2] = molecular target: T2, monkey 4-1BB on CHOK1 cells (monkey); experiment: FACS, CHOK1-c4-1BB cells; Ab 10 ug/ml
T2 construct: whole, on cells; also called CHOK1-c4-1BB
Method in brief: as §1

[3] = molecular target: T2, monkey 4-1BB on CHOK1 cells; experiment: FACS, CHOK1-c4-1BB cells; Ab 0.4 ug/ml
Method in brief: as §1

[4] = molecular target: T2, monkey 4-1BB on CHOK1 cells; experiment: FACS, CHOK1-c4-1BB cells; Ab 0.08 ug/ml
Method in brief: as §1

[5] = molecular target: T1, human 4-1BB, full length, on …; experiment: FACS, CHOK1-h4-1BB cells; Ab 0.016 ug/ml
Method in brief: as §1

[6] = molecular target: T3, hFc-tagged human 4-1BB extracellular domain protein (4-1BB-hFc) (human, UniProt Q07011 24-186, limits assumed); experiment: ELISA, coated human 4-1BB-hFc; Ab 2 ug/ml
T3 construct: also called immunogen A; 4-1BB^ECD-hFc; not shown: human IgG Fc fragment (hFc) of the pCpC vector
Description: (§2) The purified immunogen A (4-1BB-hFc), monkey 4-1BB-his, and mouse 4-1BB-his obtained in Example 1 [for the preparation method, see step 1 of Example 1, preparation of immunogen A], of which the extracellular domain of monkey-derived 4-1BB protein (purchased from ACRO biosystems), the extracellular domain of mouse 4-1BB protein (purchased from sino biological) or other immune detection point proteins respectively were diluted with PBS to a final concentration of 1.0 μg/mL, then added with […] per well to 96-well ELISA plate. It was sealed with plastic film and incubated at 4° C. overnight. The next day, the plate was washed twice with the plate-washing solution [PBS containing 0.01% (v/v) Tween20] and blocking solution [PBS containing 0.01% (v/v) Tween 20 and 1% (v/v) BSA] was added and blocked at room temperature for 2 hours. The blocking solution was discarded and 100 μl of the purified 4-1BB antibody obtained in Example 2 was added per well. After incubated at 37° C. for 2 hours, the plate was washed 3 times with a plate-washing solution [PBS containing 0.01% (v/v) Tween20]. A secondary antibody (purchased from Sigma) labeled with HRP (horseradish peroxidase) was added, and after incubated at 37° C. for 2 hours, the plate was washed 3 times with a plate-washing solution [PBS containing 0.01% (v/v) Tween20]. 100 μl of TMB substrate was added per well. After incubated for 30 minutes at room temperature, 100 μl of stop buffer (1.0N HCl) was added per well. The A450 nm values were read using an ELISA plate reader (SpectraMax 384plus, Molecular Device).

[7] = molecular target: T1, human 4-1BB, full length, on …; experiment: FACS, CHOK1-h4-1BB cells; Ab 0.0032 ug/ml
Method in brief: as §1

[8] = molecular target: T3, hFc-tagged human 4-1BB extracellular …; experiment: ELISA, coated human 4-1BB-hFc; Ab 10 ug/ml
Description: as §2

[9] = molecular target: T1, human 4-1BB, full length, on …; experiment: FACS, CHOK1-h4-1BB cells; Ab 0.00013 ug/ml
Method in brief: as §1

[10] = molecular target: T2, monkey 4-1BB on CHOK1 cells; experiment: FACS, CHOK1-c4-1BB cells; Ab 0.00013 ug/ml
Method in brief: as §1

[11] = molecular target: T3, hFc-tagged human 4-1BB extracellular …; experiment: ELISA, coated human 4-1BB-hFc; Ab 0.4 ug/ml
Description: as §2

[12] = molecular target: T3, hFc-tagged human 4-1BB extracellular …; experiment: ELISA, coated human 4-1BB-hFc; Ab 0.08 ug/ml
Description: as §2

[13] = molecular target: T3, hFc-tagged human 4-1BB extracellular …; experiment: ELISA, coated human 4-1BB-hFc; Ab 0.016 ug/ml
Description: as §2

[14] = molecular target: T3, hFc-tagged human 4-1BB extracellular …; experiment: ELISA: human 4-1BB-hFc coated at 1.0 µg/mL, antibody titrated, HRP secondary antibody, OD450
Description: as §2

T1 sequence (Q07011 24-255): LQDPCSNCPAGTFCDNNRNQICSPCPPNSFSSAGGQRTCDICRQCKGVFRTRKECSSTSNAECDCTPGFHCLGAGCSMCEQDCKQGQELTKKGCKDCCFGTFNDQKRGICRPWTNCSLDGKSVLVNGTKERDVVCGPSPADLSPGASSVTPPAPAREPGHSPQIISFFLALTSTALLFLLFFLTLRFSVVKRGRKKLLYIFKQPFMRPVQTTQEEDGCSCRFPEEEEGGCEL

B1: 15G10D4 (antibody, V domains shown)
VH: QVQLVESGGGVVQPGRSLRLSCAASGFSFSSYAMHWVRQAPGKGLEWVAIIWYDGSNQYYADSVKGRFTISRDNSKNTLYLQMNSLRAEDTAVYYCARVKQWLVSYFDYWGQGTLVTVSS
VL: EIVMTQSPATLSVSPGERATLSCRASQSVSSNLAWYQQKPGQVPRLLIYGASTRATGIPARFSGSGSGTEFSLIISSLQSEDFAVYYCQQYNNWPTFGGGTKVEIK
Q: How did the average fluorescence intensity [1] turn out when B1 was run?
A: 532 MFI

Q: What about the average fluorescence intensity [2] of the same binder?
A: 550 MFI

Q: What about the average fluorescence intensity [3] of the same binder?
A: 359 MFI

Q: And the average fluorescence intensity [4]?
A: 156 MFI

Q: What about the average fluorescence intensity [5] of the same binder?
A: 98.2 MFI

Q: What about the OD450 nm [6] of the same binder?
A: 3.61 OD450 nm

Q: What about the average fluorescence intensity [7] of the same binder?
A: 28.8 MFI

Q: And the OD450 nm [8]?
A: 3.53 OD450 nm

Q: What about the average fluorescence intensity [9] of the same binder?
A: 4.2 MFI

Q: And the average fluorescence intensity [10]?
A: 3.3 MFI

Q: What about the OD450 nm [11] of the same binder?
A: 3.55 OD450 nm

Q: What about the OD450 nm [12] of the same binder?
A: 3.35 OD450 nm

Q: What about the OD450 nm [13] of the same binder?
A: 1.72 OD450 nm

Q: And the “EC50 (read off the curve)” value [14]?
A: ~0.02 µg/mL
